This note sets out measurements from patent US20230357323A1, “HUMAN IL23 RECEPTOR BINDING POLYPEPTIDES” (University of Washington, priority 2020, published 2023).

Read-outs that look alike come from different tables or passages of the source.

Broadly, the Kd is a measure of binding affinity in units of concentration.

One data set concerns the target T1, human IL-23R (hIL-23R) (Homo sapiens, UniProt Q5VWK5).
T1 construct: his tag (C); purchased
T1 sequence (Q5VWK5 24-629): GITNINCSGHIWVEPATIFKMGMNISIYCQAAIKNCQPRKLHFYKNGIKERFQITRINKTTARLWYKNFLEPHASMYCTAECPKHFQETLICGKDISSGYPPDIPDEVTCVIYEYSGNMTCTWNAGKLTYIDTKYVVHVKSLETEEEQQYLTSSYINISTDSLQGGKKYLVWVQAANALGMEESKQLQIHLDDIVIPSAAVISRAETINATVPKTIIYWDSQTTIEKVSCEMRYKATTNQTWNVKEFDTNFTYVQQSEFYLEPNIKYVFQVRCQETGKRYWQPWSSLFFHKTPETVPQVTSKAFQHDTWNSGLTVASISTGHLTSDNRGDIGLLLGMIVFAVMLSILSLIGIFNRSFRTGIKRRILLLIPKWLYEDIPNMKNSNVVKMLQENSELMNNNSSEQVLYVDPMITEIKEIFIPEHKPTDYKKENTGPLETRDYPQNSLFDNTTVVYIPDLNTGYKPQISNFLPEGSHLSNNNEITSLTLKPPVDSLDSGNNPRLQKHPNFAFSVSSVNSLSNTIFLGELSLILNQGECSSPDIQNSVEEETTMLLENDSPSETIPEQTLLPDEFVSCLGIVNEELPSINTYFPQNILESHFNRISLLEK
As to the kind of experiment: Biolayer interferometry (BLI) binding to hIL-23R. The following applies: biolayer interferometry binding titrations; read-out: affinity (KD) for hIL-23R. The text has this: Two designs, 23R_A (SEQ ID NO:10) and 23R_B (SEQ ID NO:110), were highly enriched in the final selection pool and were chosen for further biochemical characterization. Both designs are 3-helix bundles (54 and 53 residues, respectively) which incorporate the native Trp hotspot at the N-terminal end of a helix such that IL-23R residue D118 forms a helix-capping hydrogen bond with the Trp hotspot's free backbone amine, similar to the αD helix of p19 (FIG. 1D). In both designs, this central binding helix has a larger interaction surface with hIL-23R, mediated by additional de novo hotspots, than p19. […]
Variants were first screened for relative binding to hIL-23R with biolayer interferometry (BLI). hIL-23R was immobilized on the BLI sensor tips and binding to each variant in solution at a constant concentration (50 nM) was measured to qualitatively determine relative performance of the variants. For the best-performing variants, binding constants (KD, including kon, and koff) were quantitatively determined with BLI titration experiments in triplicate. […]
Qualitative and quantitative assessment of binding affinity was performed using biolayer interferometry (ForteBio Octet™ […] and associated software for analysis). […] Kinetic constants were determined from the mathematical fit of a 1:1 binding model.
For orientation: Biolayer interferometry detects binding as a change in optical thickness at a sensor tip.

A short description of data set [1]: Circular dichroism temperature and chemical denaturant (GuHCl) melts. The format is physicochemical. How it is done: FIG. 3. Stability analysis of B08, a representative affinity-matured combinatorial variant and BO4dslf02, a representative disulfide-stabilized variant. (A) Designed proteins were incubated in simulated gastric or intestinal fluids and degradation was assessed by SDS PAGE at 5, 15, 30 and 60 minutes, 4 and 24 hours. (B) Resistance to temperature and chemical denaturant (GuHCl) was assessed by circular dichroism, measuring the helical signature (signal at 222 nm) in the conditions shown normalized to baseline (25° C. and 0 M GuHCl).
CD spectra were recorded with a J-1500 Circular Dichroism Spectrometer (JASCO). Proteins were assayed at […] in DPBS free of MgCl2 and […]. (Life Technologies) with guanidinium hydrochloride from 0 to 6 M, and data were collected at 25° C. For temperature melts, proteins at […] were heated from 25° C. to 95° C. over approximately 1.5 hours.
A general note: CD spectra are sensitive to the conformation of chiral molecules.

B1: NLWQIFYQLSTILKRTGDPTAKKLLKALAEALKKGDEKALKELAKKATKYIRS (protein)
chain 1: NLWQIFYQLSTILKRTGDPTAKKLLKALAEALKKGDEKALKELAKKATKYIRS
chain 2: NLWQIFYQLSTILKRTGDPTAKKLLKALAEALKKGDEKALKELAKKATKYIRS
notes: computational design, 3-helix bundle, 53 residues
In the case of B1, the Kd with human IL-23R (hIL-23R) was found to be 70 ± 50 nM. Besides, the “stability by circular dichroism (CD)” value in data set [1] is given as “high stability”.

B2: … (protein)
chain 1: MESEKYLRELVKKYYEGKLSVQEAVEEVRKYARKKGLEAWMLTWMFMELVKRYI
chain 2: MESEKYLRELVKKYYEGKLSVQEAVEEVRKYARKKGLEAWMLTWMFMELVKRYI
notes: computational design, 3-helix bundle, 54 residues
On to B2, for which the dissociation constant Kd with human IL-23R (hIL-23R) stood at 26 ± 1 nM. Besides, the “stability by circular dichroism (CD)” value in data set [1] (high temperature and high concentrations of chemical denaturant) is “high stability”.
